How the values were obtained:
[1] = target: SdKefQCTD (KTN-containing carboxy-terminal domain construct of the Shewanella denitrificans Kef potassium efflux system) (Shewanella denitrificans); test: native MS; nanoelectrospray on a QToF-2, 200 mM ammonium acetate, 7.5 uM with respect to the dimer, positive polarity; collisional activation to remove AMP
[2] = target: SdKefQCTD (KTN-containing carboxy-terminal domain construct of the Shewanella denitrificans Kef potassium efflux system) (Shewanella denitrificans); test: SEC; gel filtration (Figure S1); in solution, at the concentrations used (not given)
[3] = target: SdKefQCTD (KTN-containing carboxy-terminal domain construct of the Shewanella denitrificans Kef potassium efflux system) (Shewanella denitrificans); test: AUC; analytical ultracentrifugation (Figure S3); in solution, at the concentrations used (not given)
[4] = target: SdKefQCTD (KTN-containing carboxy-terminal domain construct of the Shewanella denitrificans Kef potassium efflux system) (Shewanella denitrificans); test: SEC-MALS; size-exclusion chromatography-multiangle laser scattering (Figure S2); in solution, at the concentrations used (not given)

stoichiometry N [2]: 2
stoichiometry N [3]: 2
stoichiometry N [4]: 2
Substance: SdKefQCTD (KTN-containing carboxy-terminal domain construct of the Shewanella denitrificans Kef potassium efflux system) (domain or fragment)
stoichiometry N [1]: 2
